The text below walks through data of patent publication US20200140526A1 (UNIVERSITY OF ROCHESTER, published 2020).

Assay [1] deals with A/South Carolina/01/1918 H1N1 HA (influenza A virus A/South …, UniProt Q9WFX3 18-529). Description: mPLEX-Flu multiplex bead assay, PE anti-human IgG, MFI heat map.
The target in a further assay is T1, B/Massachusetts/2/2012.
T1 construct: column under B
The description is as above.

In another assay the target is A/Texas/50/2012. The assay is described as above.
Assay [2] has as its target T2, B/Brisbane/60/2008 (IBV) HA (influenza B virus B/Brisbane/60/2008 …, UniProt P22092 16-559). The description is as above.
In assay [3] the target is A/Puerto Rico/08/1934 H1N1 (PR8 H1N1) HA (influenza A virus A/Puerto Rico/08/1934 …, UniProt P03452 18-528). Description: cell-based or functional assay.
In another assay the target is A/Wyoming/3/2003 H3N2 HA (influenza A virus A/Wyoming/3/2003 H3N2). Description: cell-based or functional assay.
Assay [4] has as its target T2, B/Brisbane/60/2008 (IBV) HA. Description: cell-based or functional assay.

Bounds are passed on as bounds.

B1: KPF1 human monoclonal antibody (hmAb) (antibody, V domains shown)
VH: EVQLLESGGGLVQPGGSLRISCAASGSTFGDFAMSWVRQSPGRGLEWVSVTSAGGDRTYYADSVKGRFTISRDNSKNTLYLQMNSLRGEDTAMYYCARLDSSGFHYGRPGRNWGQGTLVTVSS
VL: DIQMTHSPPSLSASVGDRITITCQASQDISYYLIWYQQKPGKAPKPLIYDASNLEAGVPSRFSASGSGTDFTLTISSLQPEDLATYYCQQYKSLPYTFGQGTKLEIK
In the case of B1, the binding result is given as “binds” in assay [1], “no binding (tested: 1 ug/ml)” with B/Massachusetts/2/2012, “no binding (tested: 1 ug/ml)” with A/Texas/50/2012 and “no binding (tested: 1 ug/ml)” in assay [2]. Moreover, the “NT50 (µg/ml), microneutralization, crystal violet” value in assay [3] is 146 µg/mL; with A/Wyoming/3/2003 H3N2 HA, > 200 µg/mL; in assay [4], > 200 µg/mL.
